One may read the EC50 as the midpoint of the concentration-response curve.

Among the data in patent US20150140000A1 (INNATE PHARMA, published 2015) are EC50 and Kd values, retold here.

Test [1] has as its target wild-type human TLR3 ECD-CD32 construct (V5-TLR3-CD32) on HEK293T cells (human). As to the kind of experiment: flow cytometry, 293T cells expressing TLR3/CD32 solely at the surface, neutral pH. (A flow cytometer gives signals particle by particle.)
Protocol: Following two wash cycles, cell MFI was analyzed on a FACS Canto II cytometer.
The target in test [2] is T1, recombinant human His-tagged TLR3 extracellular domain protein (human, UniProt O15455 24-704).
T1 construct: Bought protein; also called TLR3-His; recombinant human TLR3; not shown: His tag
As to the kind of experiment: SPR (Biacore T100), bivalent affinity, TLR3-His immobilized, pH 5.6; pH 5.6. A general note: In SPR one partner is held on a chip, and binding of the other changes the refractive index at the surface.

Test [3] has as its target T1, recombinant human His-tagged TLR3 …. Briefly: SPR (Biacore T100), bivalent affinity, TLR3-His immobilized, pH 7.2; pH 7.2.
Protocol: For bivalent affinity measurement, unless indicated otherwise, TLR3-His protein was immobilized on a Sensor Chip CM5 (carboxymethylated dextran layer) by amine coupling. […] The resulting sensorgrams were analysed by global fitting using the appropriate model.
Binding to TLR3 at neutral (pH 7.2) and acid (pH 5.6) conditions, and KD values were calculated.

Changes are numbered by the printed parent chain.

B1: antibody 7G11 (antibody, V domains shown)
VH: EVQLQQYGAELGKPGTSVKLSCKVSGYNITYTYMHWVNQRPGKGLEWIGRIDPANGNTIYGEKFKNKATLTADTSSNTAYMQLSQLKSDDTAIYFCAMGEFDYFDHWGQGVMVTVSS
VL: DIQMTQSPASLSASLGETVSIECLASEDISNDLAWYQQKSGKSPQVLIYAASRLEDGVPSRFSGSGSGTRYSLKISGMQPEDEADYFCQQSYKYPVTFGSGTKLEIK
notes: Rat monoclonal from LOU/c immunization #2; also called clone 7G11
B1: a half-maximal response in test [1] (EC50) required 0.021 µg/mL.

B2: antibody 31F6 (antibody, V domains shown)
VH: EVQLQQSGAELGKPGTSVKLSCKVSGYNIRYTYMHWVNQRPGKGLEWIGRIDPANGDSIYGEDFKTKATLTADTSSNTAYMQLSQLKSDDTAIYFCAMGEFDYFDYWGQGVMVTVSSASTK
VL: B1 VL with A9P, D28G, K39R, V46L, E55Q, S91N, V96L
notes: Rat monoclonal from LOU/c immunization #2; also called clone 31F6
In test [1], B2 gave an EC50 of 0.026 µg/mL.

B3: antibody 11E1 (antibody, V domains shown)
VH: QVQLQQPGAELVRPGASVKLSCKASGYTFTNYWMNWVKQRPGQGLEWIGMIDPSDSETHYNQMFKDKATLTVDKSSSTAYMQLSSLTSEDSAVYYCARGGASSDYYYFDYWGQGTTLTVSSASTK
VL: ETTVTQSPASLSMAIGEKVTIRCITSTDIHDDINWYQQKPGEPPKLLISEGNTLRPGVPSRFSSSGYGTDFVFTIENMLSEDVADYYCLQSDNLPRTFGGGTKLEIKRT
notes: Mouse monoclonal from Balb/c immunization #1; also called clone 11E1
With B3, the EC50 in test [1] is 0.016 µg/mL. Also, the Kd in test [2] was determined as 1 nM; in test [3], 0.0875 nM.

B4: antibody 32C4 (antibody, V domains shown)
VH: EVQLQQYGAELGKPGTSVKLSCKVSGYNIWSTYIYWVNQRPGKGLEWIGRIDPANGNTIYAEKFKTKATLTADTSSNTAYMQLSQLKSDDTAIYFCAMGDHGGYVMDAWGQGASVTVSS
VL: DIQMTQSPGSLSASLGETVSIECLASEDIYSYLAWYQQKPGKSPQLLIYAANRLEDGVPSRFSGSGSGTQYSLKISGMQPEDEGDYFCLQGSEFPYTFGTGTKLELK
notes: Rat monoclonal from LOU/c immunization #2; also called clone 32C4
In turn, B4 had an EC50 in test [1] of 0.037 µg/mL.
